From US20120121507A1 (NATIONAL RESEARCH COUNCIL OF CANADA, published 2012)

Experiments:
[1] = target: T1, recombinant human clusterin (human, UniProt P10909 23-449); test: SPR, rhCLU flowed over immobilized P3376, fit of the response against the clusterin concentration [inset]
T1 construct: also called rhCLU; rh-clusterin
Description: (§1) Protein-peptide interactions were followed using a BIAcore 3000 instrument (Biosensor AB, Uppsala, Sweden). All binding experiments were carried out at 25° C. under a continuous flow of the HBS-EP buffer (20 mM HEPES, 150 mM NaCl, 3.4 mM EDTA and 0.05% Tween-200) at pH 7.4 over the sensor surface at a flow rate of 20 μL/min. Different concentrations of rh-clusterin in the HBS-EP buffer were injected over the peptide-derivatized sensor chips. Dissociation was monitored for up to 300 s post-injection. The surfaces were fully regenerated by 15 s injection of an HBS-EP buffer solution containing 5 mM NaOH. […] Reference responses from control flow cells, containing unmodified dextran surfaces, were subtracted from peptide-containing flow cells, for each analyte injection using the BiaEvaluation software version 3.0 (Biacore AB, Uppsala, Sweden).
(§2) The resulting sensorgrams were used for kinetic rate determination through global fitting of the experimental data to a simple 1:1 Langmuir binding model. […] Affinity data (KD) from the binding studies were obtained by plotting the response in RU at the steady state, Req, versus the concentration of clusterin, C, and by fitting these curves to a one-site binding model, Req=C*xRmax/(C+KD) where Rmax is the value in RU at saturation and Req is the observed optical change in RU at each given C. […]

[2] = target: T1, recombinant human clusterin; test: SPR, rhCLU 0 nM to 1.4 µM over immobilized P3376 (150 RU), response at equilibrium, one-to-one binding model
Description: as §1, §2

[3] = target: T1, recombinant human clusterin; test: SPR, rh-clusterin 0-1.2 µM over immobilized P3378, no antibody; no antibody; rh-clusterin alone over immobilized P3378
Description: as §1, with “All” for “Protein-peptide interactions were followed using a BIAcore 3000 instrument (Biosensor AB, Uppsala, Sweden). All”
(§3) The question of whether an EMT-blocking anti-clusterin monoclonal antibody (mAb) 16B5 and P3378 have overlapping or independent binding sites on clusterin was investigated using SPR biosensor analysis. Several mAbs that interact with clusterin have been isolated; five of these mAbs, including 16B5, interact with an epitope on clusterin that is important for the EMT-promoting action of clusterin. Accordingly, these anti-clusterin mAbs inhibit EMT in cell culture, and tumor metastasis in animal models (O'Connor-McCourt et al, WO 2007/030930). […]

[4] = target: T1, recombinant human clusterin; test: SPR (BIAcore 3000), rhCLU over immobilized P3378 (500 RU), kinetic global fit, 1:1 Langmuir
Description: as §1, §2

[5] = target: T1, recombinant human clusterin; test: SPR, rh-clusterin preincubated with mAb 16B5 (ratios of 1:1.7), flowed over immobilized P3378; rh-clusterin preincubated with mAb 16B5 (ratio 1:1.7)
Description: Different concentrations of rh-clusterin in the HBS-EP buffer were injected over the peptide-derivatized sensor chips. Dissociation was monitored for up to 300 s post-injection. The surfaces were fully regenerated by 15 s injection of an HBS-EP buffer solution containing 5 mM NaOH. […] Reference responses from control flow cells, containing unmodified dextran surfaces, were subtracted from peptide-containing flow cells, for each analyte injection using the BiaEvaluation software version 3.0 (Biacore AB, Uppsala, Sweden).
as §3, with “2007/030930). Since clusterin-binding peptides can be used to non-invasively image clusterin-expressing tumors (primary tumors and metastases) in vivo, it is important to determine whether treatment with anti-clusterin mAbs may block peptide binding to the clusterin target and therefore compromise the ability of the peptides to image the tumor.” for “2007/030930).”

[6] = target: T1, recombinant human clusterin; test: SPR, rh-clusterin alone flowed over immobilized P3378, fit of the response against the clusterin concentration [inset]
Description: as §1, with “All” for “Protein-peptide interactions were followed using a BIAcore 3000 instrument (Biosensor AB, Uppsala, Sweden). All”
as §3

[7] = target: T1, recombinant human clusterin; test: SPR (BIAcore 3000), rhCLU 5.5 nM-1.4 µM over immobilized P3378 (500 RU), global fit, 1:1 Langmuir
Description: as §1, §2

[8] = target: T1, recombinant human clusterin; test: SPR, rhCLU flowed over immobilized P3378R
Description: as §1
This control peptide has the same amino acid content as P3378 but with a randomized sequence ([…]—SEQ ID NO:6). A lack of binding between rhCLU and this control peptide is evidenced by the linear nature of the Scatchard plot (inset; the response at equilibrium plotted against the concentration of rhCLU).

[9] = target: T1, recombinant human clusterin; test: SPR, rhCLU flowed over immobilized P3375, global fit
Description: as §1, §2

[10] = target: T1, recombinant human clusterin; test: SPR (BIAcore 3000), rhCLU over immobilized P3375 (1200 RU), kinetic global fit, 1:1 Langmuir
Description: as §1, §2

[11] = target: T1, recombinant human clusterin; test: SPR (BIAcore 3000), rhCLU 2 nM-1.1 µM over immobilized P3375 (1200 RU), global fit, 1:1 Langmuir
Description: as §1, §2

[12] = target: T1, recombinant human clusterin; test: SPR, rh-clusterin flowed over immobilized P3375R, response against the clusterin concentration [right panel]
Description: as §1
The sequence dependence of the clusterin-peptide interactions was investigated using SPR biosensor analysis and peptides with scrambled sequences. Immobilization of the peptides on the sensor chips and the SPR experiments were conducted as described in Example 4.

T1 sequence (P10909 23-449 limits assumed): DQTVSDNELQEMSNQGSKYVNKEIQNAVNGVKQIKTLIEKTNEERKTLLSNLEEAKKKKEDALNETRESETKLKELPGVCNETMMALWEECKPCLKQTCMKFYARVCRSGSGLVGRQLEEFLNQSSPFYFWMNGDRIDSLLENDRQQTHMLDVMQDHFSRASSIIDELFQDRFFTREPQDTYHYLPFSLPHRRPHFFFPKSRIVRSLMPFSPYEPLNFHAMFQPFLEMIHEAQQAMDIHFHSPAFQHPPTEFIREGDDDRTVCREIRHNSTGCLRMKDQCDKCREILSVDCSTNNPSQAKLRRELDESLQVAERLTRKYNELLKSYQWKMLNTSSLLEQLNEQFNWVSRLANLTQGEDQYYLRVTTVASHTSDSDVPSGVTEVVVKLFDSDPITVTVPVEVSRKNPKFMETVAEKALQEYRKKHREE

B1: P3376 synthetic peptide (SHALPLTWSTAA with C-terminal SGSGC extension) (peptide)
peptide: SHALPLTWSTAASGSGC
notes: In SPR it was immobilised through the C-terminal Cys (thioether); In STD-NMR it was free in solution
Question: How did the Kd [1] turn out when B1 was run?
Answer: Its Kd is 342 nM.

Question: And the Kd [2]?
Answer: The Kd was 340 nM.

B2: P3378 synthetic peptide (HPLSKHPYWSQP with C-terminal SGSGC extension) (peptide)
peptide: HPLSKHPYWSQPSGSGC
notes: Synthesised by Fmoc chemistry; In SPR it was immobilised on a CM5 chip by a thioether bond from the C-terminal Cys to maleimide; In STD-NMR it was free in solution
Question: Which results are given for B2?
Answer: Kd [3]: 520 nM; Kd [4]: 300 nM; Kd [5]: 1100 nM; Kd [6]: 514 nM; koff [7]: 0.0052 s⁻¹; kon [7]: 17200 M⁻¹ s⁻¹

B3: P3378R, randomized-sequence control peptide of P3378 (PYLHQSPHWKPSSGSGC) (peptide)
peptide: PYLHQSPHWKPSSGSGC
notes: Immobilised on the SPR chip; also called scrambled control peptide
Question: Does B3 bind [8]?
Answer: Result: no binding

B4: P3375 synthetic peptide (NTYWSQLLHFQT with C-terminal SGSGC extension) (peptide)
peptide: NTYWSQLLHFQTSGSGC
notes: as for B1
Question: Which results are given for B4?
Answer: koff [9]: 0.00603 s⁻¹; Kd [10]: 540 nM; koff [11]: 0.006 s⁻¹; kon [11]: 11200 M⁻¹ s⁻¹

B5: P3375R, randomized version of P3375 (LSLYHTNTQFWQSGSGC) (peptide)
peptide: LSLYHTNTQFWQSGSGC
notes: Immobilised on the SPR chip
Question: With B5 as the binder, how does the “EC50 (read off the curve)” value [12] read?
Answer: The value was roughly 200 nM.
